The values that follow come from US20130337438A1 (JAPAN HEALTH SCIENCES FOUNDATION, published 2013).

Test [1] concerns the target T1, HPV33 L1/L2-capsid (human papillomavirus type 33, UniProt P06418 1-467; P06416 1-499).
T1 construct: Capsid of co-expressed L1 and L2 from 293FT cells; The pseudovirus is the same capsid with a reporter plasmid; also called L1/L2-capsid of type 33; HPV33 pseudovirus
T1 sequence 1: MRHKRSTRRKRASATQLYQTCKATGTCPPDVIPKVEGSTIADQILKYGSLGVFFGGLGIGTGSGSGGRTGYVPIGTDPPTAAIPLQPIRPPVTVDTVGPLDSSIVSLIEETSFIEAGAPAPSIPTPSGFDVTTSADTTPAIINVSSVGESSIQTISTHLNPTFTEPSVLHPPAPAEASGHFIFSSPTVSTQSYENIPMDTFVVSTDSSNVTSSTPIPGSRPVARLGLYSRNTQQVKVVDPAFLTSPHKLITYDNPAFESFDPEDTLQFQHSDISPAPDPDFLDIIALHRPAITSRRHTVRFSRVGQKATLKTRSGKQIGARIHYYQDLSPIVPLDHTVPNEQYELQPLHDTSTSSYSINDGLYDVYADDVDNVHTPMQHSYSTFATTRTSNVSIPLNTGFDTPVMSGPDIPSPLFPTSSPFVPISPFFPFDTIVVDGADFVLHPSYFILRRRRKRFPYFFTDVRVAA
T1 sequence 2: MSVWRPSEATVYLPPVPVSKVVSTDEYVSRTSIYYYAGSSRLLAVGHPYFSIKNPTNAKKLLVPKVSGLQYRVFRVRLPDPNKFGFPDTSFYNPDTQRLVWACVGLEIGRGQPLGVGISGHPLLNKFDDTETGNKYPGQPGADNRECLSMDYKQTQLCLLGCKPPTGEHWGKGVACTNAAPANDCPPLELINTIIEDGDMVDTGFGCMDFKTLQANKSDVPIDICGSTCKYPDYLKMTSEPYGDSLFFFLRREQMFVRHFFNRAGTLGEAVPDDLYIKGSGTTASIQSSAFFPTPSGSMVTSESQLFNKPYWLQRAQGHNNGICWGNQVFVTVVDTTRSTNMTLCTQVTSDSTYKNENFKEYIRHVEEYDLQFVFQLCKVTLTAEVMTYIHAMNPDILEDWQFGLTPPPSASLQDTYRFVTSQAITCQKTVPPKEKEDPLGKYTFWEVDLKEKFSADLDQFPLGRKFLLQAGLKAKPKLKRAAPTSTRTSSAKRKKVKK
Kind of test: ELISA on immobilized L1/L2-capsid, ascites 1:100. A general note: ELISA stands for enzyme-linked immunosorbent assay.

Test [2] concerns the target T2, HPV35 L1/L2-capsid (human papillomavirus type 35, UniProt P27234 1-469; P27232 1-502).
T2 construct: Capsid of co-expressed L1 and L2 from 293FT cells; The pseudovirus is the same capsid with a reporter plasmid; also called L1/L2-capsid of type 35; HPV35 pseudovirus
T2 sequence 1: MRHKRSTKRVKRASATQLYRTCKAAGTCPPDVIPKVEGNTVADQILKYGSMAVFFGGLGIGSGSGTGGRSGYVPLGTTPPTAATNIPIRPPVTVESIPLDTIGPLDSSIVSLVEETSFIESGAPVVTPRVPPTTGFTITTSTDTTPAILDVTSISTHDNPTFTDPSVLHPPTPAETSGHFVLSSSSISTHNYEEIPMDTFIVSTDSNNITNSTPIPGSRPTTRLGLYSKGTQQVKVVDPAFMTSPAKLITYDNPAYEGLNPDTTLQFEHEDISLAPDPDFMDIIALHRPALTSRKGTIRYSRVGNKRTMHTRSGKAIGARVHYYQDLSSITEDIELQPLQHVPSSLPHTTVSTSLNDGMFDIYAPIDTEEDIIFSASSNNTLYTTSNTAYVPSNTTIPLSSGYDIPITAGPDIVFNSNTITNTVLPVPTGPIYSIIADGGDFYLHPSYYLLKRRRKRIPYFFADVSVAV
T2 sequence 2: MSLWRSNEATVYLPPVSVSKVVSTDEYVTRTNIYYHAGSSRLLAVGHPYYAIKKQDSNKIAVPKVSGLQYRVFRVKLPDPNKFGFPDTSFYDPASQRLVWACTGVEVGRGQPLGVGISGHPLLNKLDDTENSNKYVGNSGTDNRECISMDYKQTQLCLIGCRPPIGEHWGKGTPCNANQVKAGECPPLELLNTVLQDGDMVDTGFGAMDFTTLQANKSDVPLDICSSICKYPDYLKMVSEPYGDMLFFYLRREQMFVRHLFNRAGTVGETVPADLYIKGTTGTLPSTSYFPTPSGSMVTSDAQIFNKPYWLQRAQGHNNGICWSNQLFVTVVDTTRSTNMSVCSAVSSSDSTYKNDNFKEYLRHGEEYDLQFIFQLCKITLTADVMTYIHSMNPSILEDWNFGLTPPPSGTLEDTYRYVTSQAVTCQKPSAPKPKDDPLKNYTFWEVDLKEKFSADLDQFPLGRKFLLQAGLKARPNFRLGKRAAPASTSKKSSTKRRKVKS
Kind of test: ELISA on immobilized L1/L2-capsid, ascites 1:100.

B1: monoclonal antibody 24B (antibody, V domains shown)
VH: EVQLQQSGTVLARPGASVKMSCKASVYSFPSNWMHWVKQRPGQGLEWIGAIYPGTGATRYNQKFKDKAKLTAVTSADTAYMELSSLTDEDSAVYYCTGYSLYWGQGTILTVSS
VL: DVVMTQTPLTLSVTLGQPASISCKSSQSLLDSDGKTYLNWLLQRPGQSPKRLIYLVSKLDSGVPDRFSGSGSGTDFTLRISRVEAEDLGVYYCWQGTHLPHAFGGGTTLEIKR
notes: Used as mouse ascites or as antibody purified from ascites; also called Mouse-Mouse hybridoma 24B (FERM BP-11305)
With B1, the binding result in test [1] and in test [2] was “binds” in each case.
